Assay results: US20230168258A1 (UNIVERSIDAD DE MURCIA, published 2023)

Key:
Test in all cases: dot-blot
pig oxytocin = target: T1, pig oxytocin (pig, UniProt P01177 20-28)
T1 construct: only the oxytocin nonapeptide is meant; The form spotted in the dot-blot is not described; also called oxytocin of pig
T1 peptide (looked up): CYIQNCPLG

horse oxytocin = target: T2, horse oxytocin (horse, UniProt P01176 1-9)
T2 construct: The form spotted in the dot-blot is not described; also called oxytocin of horse
T2 peptide (looked up): CYIQNCPLG

human oxytocin = target: T3, human oxytocin (human, UniProt P01178 20-28)
T3 construct: only the oxytocin nonapeptide is meant; The form spotted in the dot-blot is not described; also called oxytocin of human
T3 peptide (looked up): CYIQNCPLG

- binding result (pig oxytocin): binds
- binding result (horse oxytocin): binds
- binding result (human oxytocin): binds
B1: monoclonal antibody P26C (antibody, V domains shown)
VH: QIQLVQSGPELKKPGETVKISCKASGYIFTNYGMNWVKQAPGKNLKWMGWINTNTGEPTYAEEFKGRFAFSLETSASIAYLKINNLKNEDTATYFCSRGGLLPLSYWGQGTLVTVSA
VL: DVVMTQTPLSLPVSLGDQASISCRSSQSLVHSNGNTYLHWFLQKPGQSPKLLIYKVSNRFSGVPDRFSGSGSGTDFTLKISRVEAEDLGVYFCSQSTHFPWTFGGGTKLEIK
notes: Mouse (BALB/c) hybridoma antibody; the isotype is stated as IgGk; It was tested as hybridoma supernatant in the ELISA; also called clone P26C; monoclonal antibody of the invention
